# Experimental data as given in patent publication US7521477B2, “Vitamin C derivatives with peptide, preparation method thereof and composition comprising the same” (Peptron Co., Ltd., priority 2003, dated 2009).
# Numbered stars: 1 amine (or outer) side, 2 acyl side, 3 side chain; on linkers, the order of the positions; unused ones are H or OH. Ends that are not written are not given here. * marks the point of attachment. Suc = O=C(CCC(=O)[*:2])[*:1]; Propyl = CCC*
# Legend:
# [1] = Color change test (storage stability in solution); assay type: physicochemical; design: key: −: no or very slight noticeable change (colorless or light yellow); +: slight; ++: moderate; +++: extreme; details: 50 mM in 50 mM potassium phosphate pH 7.0, 40° C.
# Experimental: The compounds I to IV synthesized in Example 4 and vitamin C (Sigma Aldrich) were independently dissolved in 50 mM potassium phosphate of pH 7.0 at a concentration of 50 mM, and stored in an incubator at 40° C. for three weeks. Thereafter, the compounds and vitamin C were evaluated for color change according to the standard criteria, and the results are given in Table 2, below.
# [2] = test system: male Hartley guinea pigs; test: Phototoxicity test
# Experimental: Each of the test samples was applied to the skin of guinea pigs, and the guinea pigs were exposed to ultraviolet A (UVA) radiation. Then, potency to induce phototoxicity was evaluated. Induction of phototoxicity, which is an abnormal response of the skin to a photo-stimulus such as ultraviolet or visible light, occurs non-immunologically by a chemical. Unlike the allergic response, the degree of phototoxicity can be expected by sufficient intensity of radiation and drugs.
# CP and 8-MOP were prepared at a final concentration of 10% in DMSO and then diluted to 1%. Each of guinea pigs was fixed on a fixing plate, and the skin of the guinea pig was covered with 50 μl of each of the test samples. Then, the right area of the skin was not exposed to UV light, and the left area of the skin was exposed to UVA light (320 to 380 nm) of 15 J/cm^2, which was irradiated in a distance of about 10 cm for about 2 hrs. 24 hrs, 48 hr and 72 hrs after UVA irradiation, photosensitization in the treatment group was evaluated in comparison with that in the positive control groups.
# [3] = target: mushroom tyrosinase (Agaricus bisporus, UniProt C7FF04); test: Inhibitory activity against tyrosinase; assay type: biochemical, mushrooms; details: tyrosine substrate, pH 6.8, 37° C.; read-out: IC50 (compound concentration to inhibit 50% of tyrosinase activity)
# Experimental: Tyrosinase was purchased from the Sigma Company, which was isolated from mushrooms and purified. Tyrosin as a substrate for the purified mushroom tyrosinase was prepared by dissolving in 0.05 M potassium phosphate buffer (pH 6.8) in an amount of 0.3 mg/ml. The compounds and vitamin C were dissolved in distilled water at a concentration of 10 mM, and diluted with distilled water to suitable concentrations.
# 0.5 ml of the tyrosine solution and 0.5 ml of a buffer were put into a test tube, and 0.5 ml of the diluted compound or vitamin C was added to the test tube. After each test tube was incubated in an incubator at 37° C. for 10 min, 0.05 ml of tyrosinase (2,000 U/ml) was added to each test tube, followed by incubation at 37° C. for 10 min. A sample added with 0.5 ml distilled water instead of the compound was used as a control. Thereafter, each test tube was rapidly cooled on ice to terminate the reaction. Absorbance at 475 nm was measured using a spectrophotometer. Inhibition rate against tyrosinase was calculated using the measured absorbance according to the following Equation 1, and IC50 values (compound concentration to inhibit 50% of tyrosinase activity) were then determined. Inhibition rate (%)=(A−B)/A×100 Equation 1
# wherein, A is an absorbance at 475 nm of a sample not containing an inhibitor, and B is an absorbance at 475 nm of a sample containing an inhibitor.
# [4] = test system: male Hartley guinea pigs; test: Photosensitization test (Adjuvant & Strip method); assay type: in vivo
# Experimental: A photosensitization test for the compound II-4 was carried out according to an Adjuvant & Strip method using male Hartley guinea pigs. After four sites to be sensitized were selected at the cervical and dorsal skin of the guinea pigs, an emulsion of WFI and FCA were intradermally injected to each of the selected sites. The sensitized sites were stripped only in a degree of inducing weak erythema, and covered with 0.01 PBS (excipient group), the compound II-4 (test group) and CP (chlorpromazine; positive control group) in a non-occlusive manner. After two hours, long wave-length UV light of about 10 J/cm^2 was irradiated to the test substance-applied sites. 24 hrs, 48 hrs and 72 hrs after UV irradiation, signs of photosensitization were investigated.
# [5] = Areas exposed to UVA, applied concentration 0.1%
# [6] = Areas exposed to UVA, applied concentration 1%
# [7] = Areas exposed to UVA, applied concentration 10%
# [8] = Areas not exposed to UVA, applied concentration 0.1%
# [9] = Areas not exposed to UVA, applied concentration 1%
# [10] = Areas not exposed to UVA, applied concentration 10%
# Chain of mushroom tyrosinase (C7FF04 1-392): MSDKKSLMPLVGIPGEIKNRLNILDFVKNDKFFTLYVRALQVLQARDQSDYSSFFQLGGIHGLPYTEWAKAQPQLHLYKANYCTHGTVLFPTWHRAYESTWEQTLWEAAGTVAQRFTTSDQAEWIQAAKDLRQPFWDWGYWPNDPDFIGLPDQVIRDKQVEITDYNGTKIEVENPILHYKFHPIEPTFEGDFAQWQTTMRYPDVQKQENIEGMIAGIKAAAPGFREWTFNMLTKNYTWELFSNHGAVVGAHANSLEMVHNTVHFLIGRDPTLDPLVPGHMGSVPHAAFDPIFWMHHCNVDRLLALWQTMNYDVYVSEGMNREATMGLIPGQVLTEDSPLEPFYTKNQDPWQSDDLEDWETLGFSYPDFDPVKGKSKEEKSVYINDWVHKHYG
compound,measurement,setting,value
"NCCCC[C@H](NC(=O)CNC(=O)CCC(=O)OC(CO)C1OC(=O)C(O)=C1O)C(=O)N[C@@H](Cc1c[nH]cn1)C(=O)O (some centres unmarked) [Compound I-2, 5-(succinyl-glycyl-lysyl-histidine)ascorbic acid]",Color change After 1 week,[1],−
same,Color change After 2 weeks,[1],+
same,Color change After 3 weeks,[1],+
2-(propyl-glycyl-lysyl-histidine)ascorbic acid [IV-2],Color change After 1 week,[1],−
same,Color change After 2 weeks,[1],+
same,Color change After 3 weeks,[1],++
5-(succinyl-lysyl-threonyl-threonyl-lysyl-serine)ascorbic acid [Compound I-4],Color change After 1 week,[1],−
same,Color change After 2 weeks,[1],+
same,Color change After 3 weeks,[1],+
"COc1c2occc2cc2ccc(=O)oc12 [Compound 8-MOP, 8-methoxypsoralen]",Evaluation,[2]; [5],Clearly irritating
same,Mean score,[2]; [5],2.3
same,Evaluation,[2]; [6],Extremely irritating
same,Mean score,[2]; [6],3.2
same,Evaluation,[2]; [7],Extremely irritating
same,Mean score,[2]; [7],4.0
same,Evaluation,[2]; [8],Practically non-irritating
same,Mean score,[2]; [8],0
same,Evaluation,[2]; [9],Clearly irritating
same,Mean score,[2]; [9],1.4
same,Evaluation,[2]; [10],Clearly irritating
same,Mean score,[2]; [10],1.4
"NCCCCC(NC(=O)C(Cc1cnc[nH]1)NC(=O)CNCCCOC1=C(O)C(C(O)CO)OC1=O)C(=O)O (centres unmarked) [IV-1, 2-(propyl-glycyl-histidyl-lysine)ascorbic acid]",Color change After 1 week,[1],−
same,Color change After 2 weeks,[1],+
same,Color change After 3 weeks,[1],++
"5,6-di(succinyl-glycyl-histidyl-lysine)ascorbic acid [III-1]",Color change After 1 week,[1],−
same,Color change After 2 weeks,[1],+
same,Color change After 3 weeks,[1],+
"5,6-di(succinyl-lysyl-threonyl-threonyl-lysyl-serine(SEQ ID NO:1))ascorbic acid ({ascorbic acid-Suc}-KTTKS; also: two succinyl-linked peptides on one ascorbic acid) [III-4]",Color change After 1 week,[1],−
same,Color change After 2 weeks,[1],+
same,Color change After 3 weeks,[1],+
"O=C(CCC(=O)OCC(O)C1OC(=O)C(O)=C1O)NCC(=O)N1CCCC1C(=O)N1CC(O)CC1C(=O)O (centres unmarked) [II-3, 6-(succinyl-glycyl-prolyl-hydroxyproline)ascorbic acid]",Color change After 1 week,[1],−
same,Color change After 2 weeks,[1],+
same,Color change After 3 weeks,[1],+
2-(propyl-lysyl-threonyl-threonyl-lysyl-serine(SEQ ID NO:1))ascorbic acid ({ascorbic acid-Propyl}-KTTKS) [IV-4],Color change After 1 week,[1],−
same,Color change After 2 weeks,[1],+
same,Color change After 3 weeks,[1],++
"O=C(CCC(=O)OCC(OC(=O)CCC(=O)NCC(=O)N1CCCC1C(=O)N1CC(O)CC1C(=O)O)C1OC(=O)C(O)=C1O)NCC(=O)N1CCCC1C(=O)N1CC(O)CC1C(=O)O (centres unmarked) [III-3, 5,6-(succinyl-glycyl-prolyl-hydroxyproline)ascorbic acid]",Color change After 1 week,[1],−
same,Color change After 2 weeks,[1],+
same,Color change After 3 weeks,[1],+
"O=C1OC(C(O)CO)C(O)=C1OCCCNCC(=O)N1CCC[C@H]1C(=O)N1CC(O)C[C@H]1C(=O)O (some centres unmarked) [IV-3, 2-(propyl-glycyl-prolyl-hydroxyproline)ascorbic acid]",Color change After 1 week,[1],−
same,Color change After 2 weeks,[1],+
same,Color change After 3 weeks,[1],++
"O=C(CCC(=O)OC(CO)C1OC(=O)C(O)=C1O)NCC(=O)N1CCCC1C(=O)N1CC(O)CC1C(=O)O (centres unmarked) [Compound I-3, 5-(succinyl-glycyl-prolyl-hydroxyproline)ascorbic acid]",Color change After 1 week,[1],−
same,Color change After 2 weeks,[1],+
same,Color change After 3 weeks,[1],+
"NCCCCC(NC(=O)C(Cc1cnc[nH]1)NC(=O)CNC(=O)CCC(=O)OCC(O)C1OC(=O)C(O)=C1O)C(=O)O (centres unmarked) [II-1, 6-(succinyl-glycyl-histidyl-lysine)ascorbic acid]",Color change After 1 week,[1],−
same,Color change After 2 weeks,[1],+
same,Color change After 3 weeks,[1],+
same,IC50,[3],650 µM
"5,6-di(succinyl-glycyl-lysyl-histidine)ascorbic acid [III-2]",Color change After 1 week,[1],−
same,Color change After 2 weeks,[1],+
same,Color change After 3 weeks,[1],+
"O=C1O[C@H]([C@@H](O)CO)C(O)=C1O [Vitamin C, ascorbic acid]",Color change After 1 week,[1],+
same,Color change After 2 weeks,[1],+++
"CN(C)CCCN1c2ccccc2Sc2ccc(Cl)cc21 [CP, Chlorpromazine]",Total score/Site No.,"[2]; male, Hartley, guinea pig, in vivo",0 + 0/10
same,Stimulation index,[4]; Areas exposed to UVA,5.8
same,Stimulation index,[4]; Areas not exposed to UVA,0.0
same,Photosensitization index,[4]; index of UVA irradiation site minus index of non-irradiation site,5.8
"NCCCCC(NC(=O)C(Cc1cnc[nH]1)NC(=O)CNC(=O)CCC(=O)OC(CO)C1OC(=O)C(O)=C1O)C(=O)O (centres unmarked) [Compound I-1, 5-(succinyl-glycyl-histidyl-lysine)ascorbic acid]",Color change After 1 week,[1],−
same,Color change After 2 weeks,[1],+
same,Color change After 3 weeks,[1],+
6-(succinyl-glycyl-lysyl-histidine)ascorbic acid [II-2],Color change After 1 week,[1],−
same,Color change After 2 weeks,[1],+
same,Color change After 3 weeks,[1],+
same,IC50,[3],700 µM
